# B1: HDV Ribozyme (parent)
# chain: GGCCGGCAUGGUCCCAGCCUCCUCGCUGGCGCCGGCUGGGCAACAUUCCGAGGGGACCGUCCCCUCGGUAAUGGCGAAUGGGACCCA
# Variants of: B1
# Assay: self-cleavage, relative activity (ratio to wild type); higher = more cleavage; co-transcriptional
row,Variant,self-cleavage
1,G29C G40C,0.18
2,G29C G52U,0
3,G29C G55A,0.166
4,G29C G55U,0.0396
5,G29C G68A,0.163
6,G29C G74A,0.0733
7,G29C G74U,0
8,G29C G76C,0.0386
9,G29C G76U,0.119
10,G29C G81U,0
11,G29C G82A,0.117
12,G29C U46A,0.178
13,G29C U69A,0.162
14,G29U A43C,0.136
15,G29U A43U,0.095
16,G29U A51C,0.0898
17,G29U A56U,0.109
18,G29U A77G,0.178
19,G29U A83U,0.102
20,G29U C30U,0.0779
21,G29U C32G,0.0455
22,G29U C44U,0.104
23,G29U C48U,0.0959
24,G29U C58A,0.204

row,Variant,self-cleavage
1,G29U C61A,0.089
2,G29U C85A,0.0941
3,G29U G34C,0.146
4,G29U G35A,0.0744
5,G29U G35U,0.058
6,G29U G38A,0.0656
7,G29U G38C,0.0386
8,G29U G52A,0.168
9,G29U G53A,0.0432
10,G29U G54U,0.0449
11,G29U G59A,0.102
12,G29U G81U,0.0554
13,G29U U37G,0.0723
14,G29U U46A,0.0665
15,G29U U46G,0.0386
16,G29U U47C,0.19
17,G29U U60A,0.248
18,G29U U69A,0.0875
19,G29U U79A,0.0386
20,C30A A43U,0.0692
21,C30A A45C,0.0678
22,C30A A56U,0.727
23,C30A A70U,0.62
24,C30A A77G,0.224

row,Variant,self-cleavage
1,C30A A78C,0.117
2,C30A A78U,0.237
3,C30A A83U,0.0923
4,C30A C32U,0.171
5,C30A C36U,0.148
6,C30A C41G,0.0875
7,C30A C48G,0.467
8,C30A C62A,0.578
9,C30A C63A,0.481
10,C30A C64A,0.536
11,C30A C64U,0.554
12,C30A C66A,0.582
13,C30A C86A,0.591
14,C30A G31A,0.0733
15,C30A G34U,0.155
16,C30A G35A,0.244
17,C30A G38A,0.219
18,C30A G50A,0.641
19,C30A G52U,0.532
20,C30A G53U,0.443
21,C30A G55A,0.472
22,C30A G59C,0.58
23,C30A G67C,0.318
24,C30A G73U,0.111

row,Variant,self-cleavage
1,C30A G74C,0.158
2,C30A G80U,0.153
3,C30A G81C,0.201
4,C30A G82C,0.193
5,C30A U37G,0
6,C30A U47A,0.486
7,C30A U47G,0.682
8,C30A U60G,0.502
9,C30A U65A,0.341
10,C30A U65C,0.644
11,C30A U65G,0.441
12,C30A U69C,0.623
13,C30A U72G,0.185
14,C30A U79A,0.386
15,C30A U79G,0.256
16,C30G A42G,0.0415
17,C30G A43G,0
18,C30G A45C,0.0997
19,C30G A45G,0.0563
20,C30G A51C,0.142
21,C30G A56C,0.0415
22,C30G A70G,0.0739
23,C30G A77U,0.0665
24,C30G C32A,0.115

row,Variant,self-cleavage
1,C30G C36A,0.0554
2,C30G C36G,0.0594
3,C30G C36U,0.0443
4,C30G C41A,0.0361
5,C30G C44A,0.0875
6,C30G C48G,0.119
7,C30G C57U,0.0332
8,C30G C61U,0.026
9,C30G C63G,0.0923
10,C30G C63U,0.0231
11,C30G C66U,0.185
12,C30G C75G,0.0997
13,C30G C75U,0.0755
14,C30G C85G,0.0405
15,C30G C85U,0.0302
16,C30G C86A,0.241
17,C30G G31A,0.133
18,C30G G38A,0.14
19,C30G G39C,0.131
20,C30G G53A,0.0482
21,C30G G54A,0.0811
22,C30G G59C,0.108
23,C30G G59U,0.0744
24,C30G G67A,0.0287

row,Variant,self-cleavage
1,C30G G67U,0.112
2,C30G G68C,0.0906
3,C30G G73A,0.0455
4,C30G G73C,0.0489
5,C30G G80U,0.0912
6,C30G G82C,0.0326
7,C30G U37G,0
8,C30G U60G,0.0386
9,C30G U72A,0.0536
10,C30G U72C,0.0594
11,C30G U79A,0.156
12,C30G U79C,0.0496
13,C30U A42C,0.0282
14,C30U A42G,0.156
15,C30U A43U,0.0652
16,C30U A45G,0.796
17,C30U A56C,0.772
18,C30U A70U,0.782
19,C30U A71C,0.404
20,C30U A87G,0.699
21,C30U A87U,0.636
22,C30U C33G,0.266
23,C30U C36U,0.244
24,C30U C41A,0.543

row,Variant,self-cleavage
1,C30U C49U,0.891
2,C30U C58U,0.743
3,C30U C62U,0.562
4,C30U C63A,0.466
5,C30U C63U,0.581
6,C30U C66U,0.544
7,C30U C75U,0.157
8,C30U C85G,0.0978
9,C30U C86A,0.923
10,C30U C86G,0.733
11,C30U C86U,0.795
12,C30U G31A,0.168
13,C30U G35C,0.185
14,C30U G39A,0.273
15,C30U G40C,0.0256
16,C30U G40U,0.114
17,C30U G55C,0.523
18,C30U G59A,0.878
19,C30U G67A,0.578
20,C30U G68C,0.575
21,C30U G74U,0.131
22,C30U G76A,0.862
23,C30U G82A,0.229
24,C30U U46A,0.369

row,Variant,self-cleavage
1,C30U U46C,0.0723
2,C30U U47C,0.401
3,C30U U69G,0.554
4,C30U U79G,0.128
5,G31A A43U,0.128
6,G31A A56U,0.482
7,G31A A77C,0.199
8,G31A A77G,0.339
9,G31A A78G,0.0978
10,G31A A87U,0.442
11,G31A C44U,0.0898
12,G31A C49A,0.353
13,G31A C61A,0.554
14,G31A C63U,0.606
15,G31A C66A,0.546
16,G31A C66G,0.379
17,G31A C75A,0.136
18,G31A C75G,0.086
19,G31A C84G,0.119
20,G31A C86A,0.669
21,G31A C86U,0.69
22,G31A G34A,0.0934
23,G31A G34C,0.0272
24,G31A G35C,0

row,Variant,self-cleavage
1,G31A G35U,0.102
2,G31A G38A,0.14
3,G31A G38U,0.0702
4,G31A G40A,0.233
5,G31A G40U,0.112
6,G31A G50C,0.521
7,G31A G52A,0.46
8,G31A G53A,0.487
9,G31A G55C,0.475
10,G31A G59A,0.531
11,G31A G59U,0.383
12,G31A G67A,0.44
13,G31A G68C,0.518
14,G31A G74C,0.182
15,G31A G81A,0.14
16,G31A G81U,0.126
17,G31A U37A,0.128
18,G31A U47G,0.192
19,G31A U60A,0.49
20,G31A U60G,0.642
21,G31A U69A,0.564
22,G31A U69G,0.284
23,G31A U79A,0.169
24,G31C A43C,0

row,Variant,self-cleavage
1,G31C A43U,0.135
2,G31C A45U,0.0437
3,G31C A51C,0.475
4,G31C A51G,0.341
5,G31C A70U,0.128
6,G31C A77G,0.306
7,G31C A78G,0.302
8,G31C A87U,0.328
9,G31C C33U,0.123
10,G31C C36U,0.0978
11,G31C C41G,0.269
12,G31C C44G,0.135
13,G31C C48G,0.227
14,G31C C49G,0.253
15,G31C C49U,0.339
16,G31C C61G,0.259
17,G31C C63A,0.344
18,G31C C63U,0.369
19,G31C C66G,0.443
20,G31C C66U,0.292
21,G31C C84U,0.295
22,G31C C85G,0.341
23,G31C C86G,0.188
24,G31C G34U,0.191

row,Variant,self-cleavage
1,G31C G35C,0.0978
2,G31C G35U,0.158
3,G31C G38U,0.123
4,G31C G39C,0.0475
5,G31C G39U,0.277
6,G31C G40A,0.406
7,G31C G55C,0.327
8,G31C G73C,0.155
9,G31C G74A,0.0573
10,G31C G76A,0.453
11,G31C G76C,0.609
12,G31C G81A,0.0791
13,G31C G82U,0.128
14,G31C U37G,0.214
15,G31C U46A,0.256
16,G31C U46G,0.266
17,G31C U47A,0.467
18,G31C U60A,0.434
19,G31C U60C,0.525
20,G31C U69C,0.534
21,G31C U69G,0.394
22,G31C U72A,0.166
23,G31C U72C,0.262
24,G31C U79C,0.282

row,Variant,self-cleavage
1,G31U A42G,0.0923
2,G31U A51C,0.462
3,G31U A56U,0.489
4,G31U A70C,0.161
5,G31U A78C,0.0297
6,G31U A78G,0.0811
7,G31U A78U,0.0744
8,G31U A87U,0.521
9,G31U C41A,0.136
10,G31U C48G,0.543
11,G31U C48U,0.619
12,G31U C49G,0.231
13,G31U C49U,0.302
14,G31U C57A,0.464
15,G31U C61G,0.332
16,G31U C62A,0.602
17,G31U C66A,0.45
18,G31U C66U,0.437
19,G31U C75A,0.0665
20,G31U C85G,0.481
21,G31U C86U,0.453
22,G31U G34C,0.117
23,G31U G35C,0.141
24,G31U G38A,0.109

row,Variant,self-cleavage
1,G31U G38C,0.148
2,G31U G39A,0.0361
3,G31U G39C,0.166
4,G31U G40U,0.166
5,G31U G50U,0.415
6,G31U G52U,0.492
7,G31U G55C,0.314
8,G31U G67A,0.369
9,G31U G74U,0.136
10,G31U G76C,0.479
11,G31U G80C,0.0449
12,G31U G82C,0.136
13,G31U U47C,0.383
14,C32A,0.21
15,C32A A42C,0.162
16,C32A A42G,0.0519
17,C32A A45C,0.0875
18,C32A A51U,0.256
19,C32A A70G,0.285
20,C32A A70U,0.0852
21,C32A A71U,0.222
22,C32A A77G,0.0426
23,C32A A77U,0.108
24,C32A A78U,0.0923

row,Variant,self-cleavage
1,C32A A83G,0.152
2,C32A A87G,0.165
3,C32A A87U,0.183
4,C32A C33U,0.0779
5,C32A C41U,0.143
6,C32A C44A,0.364
7,C32A C44G,0.107
8,C32A C44U,0.0875
9,C32A C48G,0.0462
10,C32A C49G,0.222
11,C32A C49U,0.0997
12,C32A C61A,0.162
13,C32A C61G,0.248
14,C32A C61U,0.201
15,C32A C62G,0.0489
16,C32A C62U,0.341
17,C32A C64U,0.175
18,C32A C66U,0.315
19,C32A C84U,0.0536
20,C32A C86U,0.147
21,C32A G35U,0.157
22,C32A G39A,0.0563

# Reference: the RNAGym collection of RNA variant scans (doi:10.7554/elife.80360)
